Data on one substance can be found in paper PMC10060833.

This assay deals with recombinant HAdV55 fiber protein (human adenovirus type 55 (HAdV55)). As to the kind of experiment: SDS-PAGE without heating or reducing agent; purified recombinant fiber in loading buffer with 10% SDS, without beta-ME, kept at room temperature for 5 min ("Non-reducing").

On to “recombinant HAdV55 fiber protein (natural protein)”, for which the stoichiometry N worked out at 3.
